In this data set the target is KLF15-ZF-GST (human, UniProt Q9UIH9 294-416). The data set can be described thus: competition; 50x, 250x vs bRho29 probe; also hRho29 probe (data not shown); EMSA: 4 mM HEPES, 5 mM EGTA, 100 mM KCl, 0.25 mM ZnCl2, 0.02% NP40, 0.1 M DTT, 4% glycerol, 90-120 min on ice, pH not stated; footprinting: same buffer, DNase I at room temperature 1 min. Conditions: protein: recombinant; tags: N-terminal GST; label: unlabeled; GG ends end-filled.
Chain of KLF15-ZF-GST (Q9UIH9 294-416): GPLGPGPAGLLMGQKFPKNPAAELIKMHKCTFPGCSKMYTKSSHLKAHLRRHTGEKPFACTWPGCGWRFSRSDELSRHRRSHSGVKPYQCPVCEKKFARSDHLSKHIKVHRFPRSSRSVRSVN

B1: IRBP1 (dsDNA)
DNA 1: GGACAGGATTAAAGGCTTACTGGAG
DNA 2: CTCCAGTAAGCCTTTAATCCTGTCC
Regarding B1, the binding result is “no binding”.

B2: IRBP2 (dsDNA)
DNA 1: GGACTTGTCAGGGCCTTTA
DNA 2: TAAAGGCCCTGACAAGTCC
On to B2, for which the binding result was “no binding”.
